± gives the standard deviation of the averaged measurements.
Legend:
MCF7 = assay: percentage of EdU-negative (G0-arrested) nuclei per well, 72 h; higher = more G0 arrest; details: reference: sequence is the full UniProt precursor, the tested protein was the secreted form or ectodomain
hTERT-HMEC = assay: as above; details: reference: sequence is the full UniProt precursor, the tested protein was the secreted form or ectodomain
[1] = protein concentration 0.0225 µM
[2] = protein concentration 0.007835 µM
[3] = protein concentration 0.07835 µM
[4] = protein concentration 0.00775 µM
[5] = protein concentration 0.0775 µM
[6] = protein concentration 0.03125 µM
[7] = protein concentration 0.3125 µM
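Also: secreted proteins added to cultured cells, EdU pulse at the end, nuclei found by Hoechst imaging, EdU status from nuclear versus surrounding ring intensity ratio, PBS as neutral control.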

| Substance | percentage of EdU-negative (MCF7; [1]) | percentage of EdU-negative (MCF7; protein concentration 0.225 µM) | percentage of EdU-negative (hTERT-HMEC; [1]) | percentage of EdU-negative (hTERT-HMEC; protein concentration 0.225 µM) | further results |
| --- | --- | --- | --- | --- | --- |
| Q9BYZ8 |  |  |  |  | percentage of EdU-negative (MCF7; protein concentration 0.02 µM): 24.8 ± 0.7%; percentage of EdU-negative (MCF7; protein concentration 0.2 µM): 29.6 ± 2.5%; percentage of EdU-negative (hTERT-HMEC; protein concentration 0.02 µM): 5.55 ± 0.64%; percentage of EdU-negative (hTERT-HMEC; protein concentration 0.2 µM): 19.9 ± 4.5% |
| MLWRQLIYWQLLALFFLPFCLCQDEYMESPQTGGLPPDCSKCCHGDYSFRGYQGPPGPPGPPGIPGNHGNNGNNGATGHEGAKGEKGDKGDLGPRGERGQHGPKGEKGYPGIPPELQIAFMASLATHFSNQNSGIIFSSVETNIGNFFDVMTGRFGAPVSGVYFFTFSMMKHEDVEEVYVYLMHNGNTVFSMYSYEMKGKSDTSSNHAVLKLAKGDEVWLRMGNGALHGDHQRFSTFAGFLLFETK [Q9BXJ4] | 24.8 ± 1.7% | 26.38 ± 0.15% | 5.75 ± 0.2% | 5.41 ± 0.19% |  |
| MLPARCARLLTPHLLLVLVQLSPARGHRTTGPRFLISDRDPQCNLHCSRTQPKPICASDGRSYESMCEYQRAKCRDPTLGVVHRGRCKDAGQSKCRLERAQALEQAKKPQEAVFVPECGEDGSFTQVQCHTYTGYCWCVTPDGKPISGSSVQNKTPVCSGSVTDKPLSQGNSGRKDDGSKPTPTMETQPVFDGDEITAPTLWIKHLVIKDSKLNNTNIRNSEKVYSCDQERQSALEEAQQNPREGIVIPECAPGGLYKPVQCHQSTGYCWCVLVDTGRPLPGTSTRYVMPSCESDARAKTTEADDPFKDRELPGCPEGKKMEFITSLLDALTTDMVQAINSAAPTGGGRFSEPDPSHTLEERVVHWYFSQLDSNSSNDINKREMKPFKRYVKKKAKPKKCARRFTDYCDLNKDKVISLPELKGCLGVSKEGRLV [Q9H4F8] |  |  |  |  | percentage of EdU-negative (MCF7; [2]): 26.5 ± 1.4%; percentage of EdU-negative (MCF7; [3]): 31.1 ± 0.71%; percentage of EdU-negative (hTERT-HMEC; [2]): 4.85 ± 0.098%; percentage of EdU-negative (hTERT-HMEC; [3]): 16.6 ± 0.68% |
| MVATKTFALLLLSLFLAVGLGEKKEGHFSALPSLPVGSHAKVSSPQPRGPRYAEGTFISDYSIAMDKIHQQDFVNWLLAQKGKKNDWKHNITQREARALELASQANRKEEEAVEPQSSPAKNPSDEDLLRDLLIQELLACLLDQTNLCRLRSR | 26.1 ± 1.5% | 24.3 ± 2.4% | 4.89 ± 0.063% | 6.12 ± 0.68% |  |
| MQMPAMMSLLLVSVGLMEALQAQSHPITRRDLFSQEIQLDMALASFDDQYAGCAAAMTAALPDLNHTEFQANQVYADSWTLASSQWQERQARWPEWSLSPTRPSPPPLGFRDEHGVALLAYTANSPLHKEFNAAVREAGRSRAHYLHHFSFKTLHFLLTEALQLLGSGQRPPRCHQVFRGVHGLRFRPAGPRATVRLGGFASASLKHVAAQQFGEDTFFGIWTCLGAPIKGYSFFPGEEEVLIPPFETFQVINASRLAQGPARIYLRALGKHSTYNCEYIKDKKCKSGPCHLDNSAMGQSPLSAVWSLLLLLWFLVVRAFPDGPGLL | 23.7 ± 1.5% | 25 ± 0.33% | 5.126 ± 0.0053% | 6.16 ± 2.3% |  |
| MPVPASWPHLPSPFLLMTLLLGRLTGVAGEDELQVIQPEKSVSVAAGESATLRCAMTSLIPVGPIMWFRGAGAGRELIYNQKEGHFPRVTTVSELTKRNNLDFSISISNITPADAGTYYCVKFRKGSPDDVEFKSGAGTELSVRAKPSAPVVSGPAVRATPEHTVSFTCESHGFSPRDITLKWFKNGNELSDFQTNVDPAGDSVSYSIHSTARVVLTRGDVHSQVICEIAHITLQGDPLRGTANLSEAIRVPPTLEVTQQPMRAENQANVTCQVSNFYPRGLQLTWLENGNVSRTETASTLIENKDGTYNWMSWLLVNTCAHRDDVVLTCQVEHDGQQAVSKSYALEISAHQKEHGSDITHEAALAPTAPLLVALLLGPKLLLVVGVSAIYICWKQKA | 24.1 ± 1.1% | 27 ± 1.5% | 5.34 ± 0.15% | 5.42 ± 0.66% |  |
| MPLRDETLREVWASDSGHEEESLSPEAPRRPKQRPAPAQRLRKKRTEAPESPCPTGSKPRKPGAGRTGRPREEPSPDPAQARAPQTVYARFLRDPEAKKRDPRETFLVARAPDAEDEEEEEEEDEEDEEEEAEEKKEKILLPPKKPLREKSSADLKERRAKAQGPRGDLGSPDPPPKPLRVRNKEAPAGEGTKMRKTKKKGSGEADKDPSGSPASARKSPAAMFLVGEGSPDKKALKKKGTPKGARKEEEEEEEAATVIKKSNQKGKAKGKGKKKAKEERAPSPPVEVDEPREFVLRPAPQGRTVRCRLTRDKKGMDRGMYPSYFLHLDTEKKVFLLAGRKRKRSKTANYLISIDPTNLSRGGENFIGKLRSNLLGNRFTVFDNGQNPQRGYSTNVASLRQELAAVIYETNVLGFRGPRRMTVIIPGMSAENERVPIRPRNASDGLLVRWQNKTLESLIELHNKPPVWNDDSGSYTLNFQGRVTQASVKNFQIVHADDPDYIVLQFGRVAEDAFTLDYRYPLCALQAFAIALSSFDGKLACE |  |  |  |  | percentage of EdU-negative (MCF7; [4]): 25.1 ± 0.28%; percentage of EdU-negative (MCF7; [5]): 25.5 ± 0.95%; percentage of EdU-negative (hTERT-HMEC; [4]): 5.21 ± 0.36%; percentage of EdU-negative (hTERT-HMEC; [5]): 6.67 ± 0.59% |
| MAPAGVSLRATILCLLAWAGLAAGDRVYIHPFHLVIHNESTCEQLAKANAGKPKDPTFIPAPIQAKTSPVDEKALQDQLVLVAAKLDTEDKLRAAMVGMLANFLGFRIYGMHSELWGVVHGATVLSPTAVFGTLASLYLGALDHTADRLQAILGVPWKDKNCTSRLDAHKVLSALQAVQGLLVAQGRADSQAQLLLSTVVGVFTAPGLHLKQPFVQGLALYTPVVLPRSLDFTELDVAAEKIDRFMQAVTGWKTGCSLMGASVDSTLAFNTYVHFQGKMKGFSLLAEPQEFWVDNSTSVSVPMLSGMGTFQHWSDIQDNFSVTQVPFTESACLLLIQPHYASDLDKVEGLTFQQNSLNWMKKLSPRTIHLTMPQLVLQGSYDLQDLLAQAELPAILHTELNLQKLSNDRIRVGEVLNSIFFELEADEREPTESTQQLNKPEVLEVTLNRPFLFAVYDQSATALHFLGRVANPLSTA |  |  |  |  | percentage of EdU-negative (MCF7; [6]): 23.9 ± 1.3%; percentage of EdU-negative (MCF7; [7]): 26.5 ± 1.4%; percentage of EdU-negative (hTERT-HMEC; [6]): 5.56 ± 0.51%; percentage of EdU-negative (hTERT-HMEC; [7]): 5.41 ± 0.61% |

— the supplement of paper PMC11316812
